Experimental data: patent US20230407373A1 (priority 2020, published 2023)
Like-named read-outs stand apart in the source and are kept apart here.

Assays:
Assay type in all cases: binding
gRNA of HCoV-OC43 = settings: for target (spectral count, OC43 Probe I RNP capture) / background (spectral count, no-probe control): type n_48_v: 48 hours post-infection; for target (spectral count, OC43 Probe I RNP capture): infected cells, unweighted spectral count; for background (spectral count, no-probe control): no-probe control on infected cells; for target (spectral count) / background (spectral count): type g_36_m, 36 hpi, Probe I; for target (spectral count): HCoV-OC43-infected HCT-8 cells; for background (spectral count): uninfected-probe control
[1] = test system: SARS-CoV-2 gRNA and sgRNAs; settings: for target (unweighted spectral count in RNP capture): Probe II capture, LC-MS/MS LFQ; for background (unweighted spectral count in control): no-probe control pull-down, used as background for Probe II
SARS-CoV-2 gRNA = settings: […]; LC-MS/MS; Probe I sample (first 199 lines of Table 2)
HCoV-OC43 gRNA and sgRNA = settings: for target (unweighted spectral count): OC43 Probe II, infected cells; for target (unweighted spectral count) / target (unweighted spectral count, OC43 Probe II capture): tested against no-probe control; for target (unweighted spectral count, OC43 Probe II) / background (unweighted spectral count, no-probe control): type n_48_v, 48 hpi; for target (unweighted spectral count, OC43 Probe II): OC43 Probe II capture on infected cells; for background (unweighted spectral count, no-probe control): no-probe control on infected cells; for target (unweighted spectral count, OC43 Probe II capture): FDR<10%; for target (spectral count) / background (spectral count): type s_36_m, Probe II; for target (spectral count): HCoV-OC43-infected HCT-8 cells; for background (spectral count): uninfected-probe control

B1: HNRNPDL (protein, UniProt O14979 1-420, looked up)
Heterogeneous nuclear …: MEVPPRLSHVPPPLFPSAPATLASRSLSHWRPRPPRQLAPLLPSLAPSSARQGARRAQRHVTAQQPSRLAGGAAIKGGRRRRPDLFRRHFKSSSIQRSAAAAAATRTARQHPPADSSVTMEDMNEYSNIEEFAEGSKINASKNQQDDGKMFIGGLSWDTSKKDLTEYLSRFGEVVDCTIKTDPVTGRSRGFGFVLFKDAASVDKVLELKEHKLDGKLIDPKRAKALKGKEPPKKVFVGGLSPDTSEEQIKEYFGAFGEIENIELPMDTKTNERRGFCFITYTDEEPVKKLLESRYHQIGSGKCEIKVAQPKEVYRQQQQQQKGGRGAAAGGRGGTRGRGRGQGQNWNQGFNNYYDQGYGNYNSAYGGDQNYSGYGGYDYTGYNYGNYGYGQGYADYSGQQSTYGKASRGGGNHQNNYQPY
target (spectral count, OC43 Probe I RNP capture) (gRNA of HCoV-OC43): 17 | background (spectral count, no-probe control) (gRNA of HCoV-OC43): 3 | target (unweighted spectral count in RNP capture) [1]: 25 | background (unweighted spectral count in control) [1]: 1 | target (unweighted spectral count of the protein in the RNP capture) (SARS-CoV-2 gRNA): 25 | target (unweighted spectral count) (HCoV-OC43 gRNA and sgRNA; 12 hpi (type n_12_v)): 6 | target (unweighted spectral count) (HCoV-OC43 gRNA and sgRNA; 24 hpi (type n_24_v)): 9 | target (unweighted spectral count, OC43 Probe II) (HCoV-OC43 gRNA and sgRNA): 18 | background (unweighted spectral count, no-probe control) (HCoV-OC43 gRNA and sgRNA): 3

B2: RBM3: host protein, UniProt P98179 (protein, UniProt P98179 1-157, looked up)
RNA-binding protein 3: MSSEEGKLFVGGLNFNTDEQALEDHFSSFGPISEVVVVKDRETQRSRGFGFITFTNPEHASVAMRAMNGESLDGRQIRVDHAGKSARGTRGGGFGAHGRGRSYSRGGGDQGYGSGRYYDSRPGGYGYGYGRSRDYNGRNQGGYDRYSGGNYRDNYDN
target (spectral count) (gRNA of HCoV-OC43): 14 | background (spectral count) (gRNA of HCoV-OC43): 2 | target (spectral count, OC43 Probe I RNP capture) (gRNA of HCoV-OC43): 17 | background (spectral count, no-probe control) (gRNA of HCoV-OC43): 1 | target (unweighted spectral count in RNP capture) [1]: 21 | background (unweighted spectral count in control) [1]: 1 | target (unweighted spectral count of the protein in the RNP capture) (SARS-CoV-2 gRNA): 15 | target (unweighted spectral count, OC43 Probe II capture) (HCoV-OC43 gRNA and sgRNA; 24 hpi, type n_24_v): 6 | target (unweighted spectral count, OC43 Probe II capture) (HCoV-OC43 gRNA and sgRNA; 36 hpi, type n_36_v): 10

B3: FUBP1: host protein, UniProt Q96AE4 (protein, UniProt Q96AE4 2-644, looked up)
Far upstream element-binding …: ADYSTVPPPSSGSAGGGGGGGGGGGVNDAFKDALQRARQIAAKIGGDAGTSLNSNDYGYGGQKRPLEDGDQPDAKKVAPQNDSFGTQLPPMHQQQSRSVMTEEYKVPDGMVGFIIGRGGEQISRIQQESGCKIQIAPDSGGLPERSCMLTGTPESVQSAKRLLDQIVEKGRPAPGFHHGDGPGNAVQEIMIPASKAGLVIGKGGETIKQLQERAGVKMVMIQDGPQNTGADKPLRITGDPYKVQQAKEMVLELIRDQGGFREVRNEYGSRIGGNEGIDVPIPRFAVGIVIGRNGEMIKKIQNDAGVRIQFKPDDGTTPERIAQITGPPDRCQHAAEIITDLLRSVQAGNPGGPGPGGRGRGRGQGNWNMGPPGGLQEFNFIVPTGKTGLIIGKGGETIKSISQQSGARIELQRNPPPNADPNMKLFTIRGTPQQIDYARQLIEEKIGGPVNPLGPPVPHGPHGVPGPHGPPGPPGPGTPMGPYNPAPYNPGPPGPAPHGPPAPYAPQGWGNAYPHWQQQAPPDPAKAGTDPNSAAWAAYYAHYYQQQAQPPPAAPAGAPTTTQTNGQGDQQNPAPAGQVDYTKAWEEYYKKMGQAVPAPTGAPPGGQPDYSAAWAEYYRQQAAYYAQTSPQGMPQHPPAPQGQ
target (spectral count) (gRNA of HCoV-OC43): 15 | background (spectral count) (gRNA of HCoV-OC43): 2 | background (spectral count, no-probe control) (gRNA of HCoV-OC43): 2 | target (unweighted spectral count in RNP capture) [1]: 21 | background (unweighted spectral count in control) [1]: 1 | target (unweighted spectral count of the protein in the RNP capture) (SARS-CoV-2 gRNA): 32 | target (unweighted spectral count, OC43 Probe II capture) (HCoV-OC43 gRNA and sgRNA; 36 hpi, type n_36_v): 17 | target (unweighted spectral count) (HCoV-OC43 gRNA and sgRNA; 12 hpi (type n_12_v)): 6 | target (unweighted spectral count) (HCoV-OC43 gRNA and sgRNA; 24 hpi (type n_24_v)): 12 | target (unweighted spectral count, OC43 Probe II) (HCoV-OC43 gRNA and sgRNA): 21 | background (unweighted spectral count, no-probe control) (HCoV-OC43 gRNA and sgRNA): 2 | target (spectral count) (HCoV-OC43 gRNA and sgRNA; 36 hpi): 17 | background (spectral count) (HCoV-OC43 gRNA and sgRNA; 36 hpi): 1

B4: SERBP1 (protein, UniProt Q8NC51 2-408, looked up)
SERPINE1 mRNA-binding protein …: PGHLQEGFGCVVTNRFDQLFDDESDPFEVLKAAENKKKEAGGGGVGGPGAKSAAQAAAQTNSNAAGKQLRKESQKDRKNPLPPSVGVVDKKEETQPPVALKKEGIRRVGRRPDQQLQGEGKIIDRRPERRPPRERRFEKPLEEKGEGGEFSVDRPIIDRPIRGRGGLGRGRGGRGRGMGRGDGFDSRGKREFDRHSGSDRSSFSHYSGLKHEDKRGGSGSHNWGTVKDELTESPKYIQKQISYNYSDLDQSNVTEETPEGEEHHPVADTENKENEVEEVKEEGPKEMTLDEWKAIQNKDRAKVEFNIRKPNEGADGQWKKGFVLHKSKSEEAHAEDSVMDHHFRKPANDITSQLEINFGDLGRPGRGGRGGRGGRGRGGRPNRGSRTDKSSASAPDVDDPEAFPALA
target (spectral count, OC43 Probe I RNP capture) (gRNA of HCoV-OC43): 19 | background (spectral count, no-probe control) (gRNA of HCoV-OC43): 4 | target (unweighted spectral count in RNP capture) [1]: 30 | background (unweighted spectral count in control) [1]: 1 | target (unweighted spectral count of the protein in the RNP capture) (SARS-CoV-2 gRNA): 17 | target (unweighted spectral count, OC43 Probe II capture) (HCoV-OC43 gRNA and sgRNA; 36 hpi, type n_36_v): 15 | target (unweighted spectral count) (HCoV-OC43 gRNA and sgRNA; 24 hpi (type n_24_v)): 6 | target (unweighted spectral count, OC43 Probe II) (HCoV-OC43 gRNA and sgRNA): 18 | background (unweighted spectral count, no-probe control) (HCoV-OC43 gRNA and sgRNA): 4

B5: HNRNPL: host protein, UniProt P14866 (protein, UniProt P14866 1-589, looked up)
Heterogeneous nuclear …: MSRRLLPRAEKRRRRLEQRQQPDEQRRRSGAMVKMAAAGGGGGGGRYYGGGSEGGRAPKRLKTDNAGDQHGGGGGGGGGAGAAGGGGGGENYDDPHKTPASPVVHIRGLIDGVVEADLVEALQEFGPISYVVVMPKKRQALVEFEDVLGACNAVNYAADNQIYIAGHPAFVNYSTSQKISRPGDSDDSRSVNSVLLFTILNPIYSITTDVLYTICNPCGPVQRIVIFRKNGVQAMVEFDSVQSAQRAKASLNGADIYSGCCTLKIEYAKPTRLNVFKNDQDTWDYTNPNLSGQGDPGSNPNKRQRQPPLLGDHPAEYGGPHGGYHSHYHDEGYGPPPPHYEGRRMGPPVGGHRRGPSRYGPQYGHPPPPPPPPEYGPHADSPVLMVYGLDQSKMNCDRVFNVFCLYGNVEKVKFMKSKPGAAMVEMADGYAVDRAITHLNNNFMFGQKLNVCVSKQPAIMPGQSYGLEDGSCSYKDFSESRNNRFSTPEQAAKNRIQHPSNVLHFFNAPLEVTEENFFEICDELGVKRPSSVKVFSGKSERSSSGLLEWESKSDALETLGFLNHYQMKNPNGPYPYTLKLCFSTAQHAS
target (spectral count) (gRNA of HCoV-OC43): 59 | background (spectral count) (gRNA of HCoV-OC43): 6 | background (unweighted spectral count in control) [1]: 1 | target (unweighted spectral count of the protein in the RNP capture) (SARS-CoV-2 gRNA): 43 | target (unweighted spectral count, OC43 Probe II capture) (HCoV-OC43 gRNA and sgRNA; 36 hpi, type n_36_v): 42 | target (unweighted spectral count) (HCoV-OC43 gRNA and sgRNA; 12 hpi (type n_12_v)): 12 | target (unweighted spectral count) (HCoV-OC43 gRNA and sgRNA; 24 hpi (type n_24_v)): 25 | target (unweighted spectral count, OC43 Probe II) (HCoV-OC43 gRNA and sgRNA): 46 | background (unweighted spectral count, no-probe control) (HCoV-OC43 gRNA and sgRNA): 2 | target (spectral count) (HCoV-OC43 gRNA and sgRNA; 36 hpi): 42 | background (spectral count) (HCoV-OC43 gRNA and sgRNA; 36 hpi): 5

B6: DDX5: host protein, UniProt P17844 (protein, UniProt P17844 1-614, looked up)
Probable ATP-dependent RNA …: MSGYSSDRDRGRDRGFGAPRFGGSRAGPLSGKKFGNPGEKLVKKKWNLDELPKFEKNFYQEHPDLARRTAQEVETYRRSKEITVRGHNCPKPVLNFYEANFPANVMDVIARQNFTEPTAIQAQGWPVALSGLDMVGVAQTGSGKTLSYLLPAIVHINHQPFLERGDGPICLVLAPTRELAQQVQQVAAEYCRACRLKSTCIYGGAPKGPQIRDLERGVEICIATPGRLIDFLECGKTNLRRTTYLVLDEADRMLDMGFEPQIRKIVDQIRPDRQTLMWSATWPKEVRQLAEDFLKDYIHINIGALELSANHNILQIVDVCHDVEKDEKLIRLMEEIMSEKENKTIVFVETKRRCDELTRKMRRDGWPAMGIHGDKSQQERDWVLNEFKHGKAPILIATDVASRGLDVEDVKFVINYDYPNSSEDYIHRIGRTARSTKTGTAYTFFTPNNIKQVSDLISVLREANQAINPKLLQLVEDRGSGRSRGRGGMKDDRRDRYSAGKRGGFNTFRDRENYDRGYSSLLKRDFGAKTQNGVYSAANYTNGSFGSNFVSAGIQTSFRTGNPTGTYQNGYDSTQQYGSNVPNMHNGMNQQAYAYPATAAAPMIGYPMPTGYSQ
target (spectral count) (gRNA of HCoV-OC43): 30 | background (spectral count) (gRNA of HCoV-OC43): 3 | target (spectral count, OC43 Probe I RNP capture) (gRNA of HCoV-OC43): 30 | background (spectral count, no-probe control) (gRNA of HCoV-OC43): 3 | target (unweighted spectral count in RNP capture) [1]: 24 | background (unweighted spectral count in control) [1]: 1 | target (unweighted spectral count of the protein in the RNP capture) (SARS-CoV-2 gRNA): 32 | target (unweighted spectral count) (HCoV-OC43 gRNA and sgRNA; 12 hpi (type n_12_v)): 8 | target (unweighted spectral count, OC43 Probe II) (HCoV-OC43 gRNA and sgRNA): 31 | background (unweighted spectral count, no-probe control) (HCoV-OC43 gRNA and sgRNA): 3 | target (spectral count) (HCoV-OC43 gRNA and sgRNA; 36 hpi): 33 | background (spectral count) (HCoV-OC43 gRNA and sgRNA; 36 hpi): 3
